Assay results from the DeepSol protein solubility set.

Test: soluble on expression in E. coli; label from the status in PepcDB or PDB records

| Sequence | soluble on expression in E. coli |
| --- | --- |
| GSGTMEKGTFTLKDIYKQIEAMNKMGPVRKIFEMLPFGLGLKVDNDVMEMTQEKMKKFRVIMDSMTEEELLNPKIIDSSRIRRIAIGSGTSPQEVKELLNYYKTMKNLMKKMKKNKLPI | soluble |
| MAHHHHHHMRGMWATLRLFRCDRNFTALNRGNGVYNIQSVASRDCALCHSQRAVKHRSLSPDDPFGEKSASDDPVDGFYGAWSNINVDAFANAAASEEVRMAHFGPEWSRFTTIGRLSVKKMNESGSSASSGSEDCGMASQHPLGAEELHMRELRERRKVLERNYSSYDEYVAKELGLSEVDDCDNACGLQSEDPEIVADGEEAEDNDDADEDADNVPLPQFMRRSGCEQENDTGVNIYSSDQQQQQQMGGVPANTVNEGHVPQRRGTLHPPEPLAQVVFCQLGEPHGDSELPREDPLHWDTEEVILWIRRMEAAQCVLSSGSLACDSLVMEDPSMQEAFRMARIDGDYLLKNTVPATMFQVMRRWHLRRHEIVLAVLKEQQRRGIDSHEINTSIFDDPIMRGILDSGRAKLDEVVLMVTPMLVQETICQGYLYCR | not soluble |
| MTYDYVIGMDACKYFHHACVLDIDGTQVLSKRINQNEQSLRALFSAFSAYDHKVLVVVDQPNNIGRLTVAVAQDIGIDVRYLPGLAMRQLSRIHAGNAKTDIRDAYIIAHAAKNLPESLRSVDRVEEAFLQLKVLNGIDEDLARSYTRLINQIRSALVGCYPQFEQALRGQIIHRKWVLHLLARYGGPTKIKRLGKAKAAAFARRYKARNPEPVLDAIFAAISEQTVTIAGAHYAEMGVAMSAKDALLKLEHRQQIEKEVIELINDIPHTQFLLSMPGIGPKTAAQILMTAGDMSDFPSAGHLASYAGLSPRTNQSGTSIMSNSLNRAGNKKLKNALWQSSFASIRFHERSRQFYERKRREGKRHNAAVVALARRRLNVLYAMMRNHEHYHDPAPSQEDLAA | not soluble |
| MDVEAFYKISYGLYIVTSESNGRKCGQIANTVFQLTSKPVQIAVCLNKENDTHNAVKESGAFGVSVLELETPMEFIGRFGFRKSSEFEKFDGVEYKTGKTGVPLVTQHAVAVIEAKVVKECDVGTHTLFVGEAVDAEVLKDAEVLTYADYHLMKKGKTPRTATVYFESK | soluble |
| MNQLQAEINAANAVFPVSDSTKIPKVSQKLFGLLGDGFFPQLHPKGLKIADNIAALFDQYNLKSIALKNFDLNLERKNDIVIQGKVCYSFSIK | not soluble |
| MSLAEKKERIRFMTVDDVDAVVRVEEQTFTVPWSREAFINEVTNNQFARYVVYEVGEQIVGYCGVWVVYDESHITNIAIHPDYRGEKRGEALLRYILEFARLLGAKKLSLEVRISNEIAQRLYRKFGFQAGGIRKNYYTDNQEDALVMWVMLSEGHHHHHH | soluble |
| MGSSHHHHHHSSGLVPRGSHMAEQVLPQALYLSNMRKAVKIRERTPEDIFKPTNGIIHHFKTMHRYTLEMFRTCQFCPQFREIIHKALIDRNIQATLESQKKLNWCREVRKLVALKTNGDGNCLMHATSQYMWGVQDTDLVLRKALFSTLKETDTRNFKFRWQLESLKSQEFVETGLCYDTRNWNDEWDNLIKMASTDTPMARSGLQYNSLEEIHIFVLCNILRRPIIVISDKMLRSLESGSNFAPLKVGGIYLPLHWPAQECYRYPIVLGYDSHHFVPLVTLKDSGPEIRAVPLVNRDRGRFEDLKVHFLTDPENEMKEKLLKEYLMVIEIPVQGWDHGTTHLINAAKLDEANLPKEINLVDDYFELVQHEYKKWQENSEQGRREGHAQ | soluble |
| MTVAVSPDGLPALVLNADYRPLSYYPLSLWSWQDAIKAVFLDRVNIVAEYEHAVSSPTFSMKLPSVVSLKAYVKPSRHPAFTRFNVFLRDRFQCQYCGTPDDLTFDHVIPRHRGGATTWENVVAACSPCNLRKGGMMPAHAKMWPLQKPYQPTVHDLHNNGRLFPPNHLHESWMDYLYWDVELEPLEHHHHHH | not soluble |
| MGSDKIHHHHHHMEENKQTLYNDELLDILPDGVIIFNISGEVIQLNRQALTELHVHSSVNAMMPLPTNILFKLLNNKEDILSVILEKIRQGEQTYSLSEHTFMQEQVDYTQFPIRGDFATIKEDGNLKKILFFFRNITVELTQEYILNTALQRTRIYPWYYDINRSEFTLDNRYFEHLGISAGENNTLTMEEYVNMIHPDDRQAMADAFIVQLSGMETFDKSVPFRLHRGDGTWEWFEGQSTYIANISGHPYRLVGICMSIQEYKDIENTLIEARKKAEESDRLKMAFLANMSHEIRTPLNAIVGFSDVIGSTYDELSEEERADFVRLISINSEHLVRLIDDVLDLSKIESNTIKFTFTDCSLRSLMIDVEKEQTMKPISEIEIRALLPNEDVYINTDATRLKQVISNFINNARKFTEKGYIHFGYAVDSVDASSVHVFVEDTGSGIPKECQKEIFDRFYKVDTFKQGTGLGLSICKTIVEHLQGDISVESEMGKGSRFIVTLPFERQTED | not soluble |
| GSHMEQDLKTLPTTKITCPKCGNDTAYWWEMQTRAGDEPSTIFYKCTKCGHTWRSYE | soluble |
| MGSDKIHHHHHHMIDTFERTGPLMEASSYPAWAQQLINDCSPAKARVVEHELYQQMRDAKLSPQIMRQYLIGGWPVVEQFAVYMAKNLTKTRFGRHPGEDMARRWLMRNIRVELNHADYWVNWCAAHDVTLEDLHDQRVAPELHALSHWCWQTSSSDSLAVAMAATNYAIEGATGEWSAVVCSTGVYAEAFAEETRKKSMKWLKMHAQYDDAHPWEALEIICTLVGNKPSLQLQAELRQAVTKSYDYMYLFLERCIQLDKVKSPRGRVAALEM | not soluble |
| MGHHHHHHSHMNIQKDGKNVTSRREWIEKLVESKGKVDIEELASHFGVSSMTIRRDLMHLEEHNKLIRTHGGAVAPSSLIGETPYAQKQTEHLMEKQLIAKQASTLVPEGATILVDSGTTTLELIKLLKDRNDLTIVTNDITIAAELVNASPKCIVTGGELQLGVGALFGPQTEGMIRELHVDLFFLGAHAVDEAAGVTAPTLEKAAIKKRMMEAAQTTWLICDSSKFSKRAFANVCQLTKLEGIITDANFLTSFKHENYHDNMVIAQA | soluble |
| PVNDEVEAVKNMHLIGQSQVAFREWNQKWVDLSLNSFADIENNLFEAEGYNHSFRFLKASHQIDQIESQITLIEEDIAAIRNALADLEKQESKNSGRVLHALDLFEELQHRVAENSEQYGQALDEIEKQLENIQSEFSQFVTLNSSGDPVEAAVILDNTENHILALSHIVDRVPALVTTLSTELPDQLQDLEAGYRKLIDANYHFVETDIEARFHLLYEAFKKNQENIRQLELDNAEYENGQAQEEINALYDIFTREIAAQKVVENLLATLPTYLQHMKENNTLLGEDIARLNKTYLLPETAASHVRRIQTELESFEAAIVEVTSNQEEPTQAYSVLEENLEDLQTQLKDIEDEQISVSERLTQIEKDDINARQKANVYVNRLHTIKRYMEKRNLPGIPQTFLKLFFTASNNTEDLMVELEQKMINIESVTRVLEIATNDMEALETETYNIVQYATLTEQLLQYSNRYRSFDERIQEAFNEALDIFEKEFDYHASFDKISQALEVAEPGVTNRFVTSYEKTRETI | not soluble |
| MSLDVRQSIHSAHAKTLDTQGLRNEFLVEKVFVADEYTMVYSHIDRIIVGGIMPITKTVSVGGEVGKQLGVSYFLERRELGVINIGGAGTITVDGQCYEIGHRDALYVGKGAKEVVFASIDTGTPAKFYYNCAPAHTTYPTKKVTPDEVSPVTLGDNLTSNRRTINKYFVPDVLETCQLSMGLTELAPGNLWNTMPCHTHERRMEVYFYFNMDDDACVFHMMGQPQETRHIVMHNEQAVISPSWSIHSGVGTKAYTFIWGMVGENQVFDDMDHVAVKDLREGHHHHHH | soluble |
| MNFTEMTSMEPIVTESRTPIPPVTDADRKAAFGNLQGHAIHDSAINYLVLLDQLEWQRSDNTNNFSWSVNSWIGGDTDRIWLKSEGERSNGETEAAEAQLLWGHAVGPWWDLVAGVRQDFRPASARTWAAVGFQGLALYNFESEITGFVSNGGKAALRLGGEYDVLLTNRLILQPSYEVNFYSQDDESRGRGRGLTDTELGLRLRYEIRREFAPYIGVSWNQLYGKTSDMAKREGEKDHQVVFLAGARIWFLEHHHHHH | not soluble |
| MSLLKMYADKRGLKDIKSNMVMREFEEVFEKFKDWTEKIKQKYPNPDEILNLEKEEKWDFSDLFGEFLGDYRTVKSYHEFDKDNPYLPSDEFNKYFAAFSQIQEEIRKEKAEKKALEVQEEDLSNEVRKEPQIFSWEYGEGIQANLDYIFHLIKDLYNCDNEQDRQKVLDKIKTAIRTNPEIQVNEDILNEFIEDLGKSFEKEKLEEVWKTEGKLRECLKDFCKKKEESNKKKIINDFLVKGVFLVEWVADKQLNTAKKKGEYSPSWSDTEKLIWKEKSTNLPTMTEKDEDGNFKWRKLITDISEAFKNEGHHHHHH | soluble |
| TRAFQEGSYSSNIKNAAKFYTGLIQLQNPEFGDSSSIDDALPQTDTFISASRANSNIDVILPRVESFALAAKGERSKGVMVLGVDPESENAYSHISDKLVQGEFIASGQNAVLVGGGLAQYLRLKIGDELVLYGAGYRGQTAAGLYRVAGILHFPLQQLDSQLVYMPLDTAQTLYSLDKQVTAWVLNTSNLRVLPSVIEQLKRDYGNSVAVKGWQELSPELSQQIALDKAG | not soluble |
| MTGTYTELIEGSERLSGLTDVDEVIKDLSRLLRKLVKTRWIAVYFFDRERRDFAPARSTGLPASFLPVFREMPLAPDKIPLLKSMLRKRQHLMLTDPGSSDLLTPKLRKLLRNLCVLAVPMVVRTQVIGAVFMARTRDNPPFSDAETAIIRDLVSHAALVVSHMQLFDE | not soluble |
| MVSENSDATNVETTALALKILVAGGFGVGKTTMVGAVSEIRPLRTEELLSEAGQSVDDTDGVDQKVTTTVAMDFGRITIRSGLSLYLFGTPGQDRFWFLWDELSQGALGAVVLADTRRLEDCFPAVDYFEHRHIPFVVAVNCFAGARTYGAHDVSRALDLDQGTPVVLCDARDRDSGKEVLIRLVEYAGRMHTARLLDSVGLEHHHHHH | not soluble |
| MGSDKIHHHHHHMYMIKQNFTTKVYPLKQFEGEYSEVAYAGDSQADDVIVFIHGALLTYKIMTMFEPYFRDYKLIFINCPSRGRSSDLDRDTHTLDDYAARIYDVLTQIVKEQQIKELSIVGYSMGGMIATRLLKYNTLPVSHLIYLHSAAKITPDASMLARLFTSESKRAVLKDEIKAVKNLPQYILDKTIYAQKENALDLVQFIAPIKTIITDMIYTINTDYLPDIDEIKQFPKILFMSGKEDQIIPYTDSQATLEKFKALGGETKEVIYPGIGHIDFPSVLETQSDGQTGVVDEIKAWISKK | not soluble |
| MGLSPHVEALQVLQTALQTGEGFIKVTGEVGTGKTLICRKLINELPQGFHCAYLPNPYLTPAELRWAVANELGLKYTSEIDQQQLTGLIQQQLLALSTHGHAIVLVLDEAQALPDESLEALRLFTNLETESRKLLQVVLFGQPELDERLKRQAFRQLRQRITFSYNLRPLEHHHHHH | not soluble |
| MGSSHHHHHHSSGRENLYFQGHMIMIFTSSCCDNLSIDEIIERAEKGDCEAQYIVGFYYNRDSAIDSPDDEKAFYWLKLAAEQGHCEAQYSLGQKYTEDKSRHKDNEQAIFWLKKAALQGHTFASNALGWTLDRGEAPNYKEAVVWYQIAAESGMSYAQNNLGWMYRNGNGVAKDYALAFFWYKQAALQGHSDAQNNLADLYEDGKGVAQNKTLAAFWYLKSAQQGNRHAQFQIAWDYNAGEGVDQDYKQAMYWYLKAAAQGSVGAYVNIGYMYKHGQGVEKDYQAAFEWFTKAAECNDATAWYNLAIMYHYGEGRPVDLRQALDLYRKVQSSGTRDVSQEIRETEDLL | soluble |
| IGFRFDDSKGTVFIDGDVEEITGYSTEDFLSHRVKWADLVLPEDQYLIFERINRSVSNPDHSIETEYRIKRKNGEIRWIREFLQKFPEESKNSRQFQGFIHDITGRKKA | not soluble |
